Test results: PMC12102759 (2025)

B1: CBL peptide 540-555 (E3 ubiquitin-protein ligase CBL), 16-mer library wild type / YES SH3 (YES1 SH3 domain, residues 90-152) (parent complex)
chain 1: RDLPPPPPPDRPYSVG
chain 2: not shown
B2: ATXN2 peptide 913-928 (Ataxin-2), 16-mer library wild type / PABPC1 PABC (PABPC1 PABC domain, residues 544-623) (parent complex)
chain 1: TLNPNAKEFNPRSFSQ
chain 2: PLTASMLASAPPQEQKQMLGERLFPLIQAMHPTLAGKITGMLLEIDNSELLHMLESPESLRSKVDEAVAVLQAHQAKEAA

Variants of: B1
Test: proteomic peptide phage display deep mutational scan (ProP-PD DMS): M13 P8 16-mer library selected against immobilised GST-tagged bait for four days (rounds), NGS of the eluted pools per day and pseudo-replica; bait immobilised on MaxiSorp plates (10 µg), library pre-cleared on GST, 2 h binding at 4 °C, five washes; one round per day, days 1-4; value from days 2 and 3

Variant | screen value
chain 1 P4V | 0.000427 average fractional NGS count over selection days 2 and 3 (reads of this peptide / all reads for the bait, averaged over …
chain 1 P8T | 0.0233 average fractional NGS count over selection days 2 and 3 (reads of this peptide / all reads for the bait, averaged over …
chain 1 R1V | 0.000334 average fractional NGS count over selection days 2 and 3 (reads of this peptide / all reads for the bait, averaged over …
chain 1 L3V | 0.00179 average fractional NGS count over selection days 2 and 3 (reads of this peptide / all reads for the bait, averaged over …
chain 1 D10Y | 0.000449 average fractional NGS count over selection days 2 and 3 (reads of this peptide / all reads for the bait, averaged over …
chain 1 R11I | 0.000246 average fractional NGS count over selection days 2 and 3 (reads of this peptide / all reads for the bait, averaged over …

Variants of: B2
Test: as above

Variant | screen value
chain 1 TLSPNAKEFNPRSFSQ | 0.0019 average fractional NGS count over selection days 2 and 3 (reads of this peptide / all reads for the bait, averaged over …
chain 1 TLDPNAKEFNPRSFSQ | 0.00069 average fractional NGS count over selection days 2 and 3 (reads of this peptide / all reads for the bait, averaged over …
chain 1 TLQPNAKEFNPRSFSQ | 0.00023 average fractional NGS count over selection days 2 and 3 (reads of this peptide / all reads for the bait, averaged over …
chain 1 TLNPNAKAFNPRSFSQ | 0.000246 average fractional NGS count over selection days 2 and 3 (reads of this peptide / all reads for the bait, averaged over …
chain 1 TLNPNAKYFNPRSFSQ | 0.000547 average fractional NGS count over selection days 2 and 3 (reads of this peptide / all reads for the bait, averaged over …
chain 1 TLNPNAKSFNPRSFSQ | 0.00107 average fractional NGS count over selection days 2 and 3 (reads of this peptide / all reads for the bait, averaged over …
chain 1 TLNPNAKHFNPRSFSQ | 0.00041 average fractional NGS count over selection days 2 and 3 (reads of this peptide / all reads for the bait, averaged over …
chain 1 TLNPNAKMFNPRSFSQ | 0.00043 average fractional NGS count over selection days 2 and 3 (reads of this peptide / all reads for the bait, averaged over …
chain 1 TLNPNAKNFNPRSFSQ | 0.00138 average fractional NGS count over selection days 2 and 3 (reads of this peptide / all reads for the bait, averaged over …
chain 1 TLNPNAKEFNPHSFSQ | 0.00563 average fractional NGS count over selection days 2 and 3 (reads of this peptide / all reads for the bait, averaged over …
chain 1 TLNPNAKEFNPKSFSQ | 0.000537 average fractional NGS count over selection days 2 and 3 (reads of this peptide / all reads for the bait, averaged over …
chain 1 TLNPNAKEFNPGSFSQ | 0.000653 average fractional NGS count over selection days 2 and 3 (reads of this peptide / all reads for the bait, averaged over …
chain 1 TLNPNAKEFNPDSFSQ | 0.00156 average fractional NGS count over selection days 2 and 3 (reads of this peptide / all reads for the bait, averaged over …
chain 1 TLNPNAKEFNPYSFSQ | 0.00157 average fractional NGS count over selection days 2 and 3 (reads of this peptide / all reads for the bait, averaged over …
chain 1 TLNPNAKEFNPFSFSQ | 0.000951 average fractional NGS count over selection days 2 and 3 (reads of this peptide / all reads for the bait, averaged over …
chain 1 TLNPNAKEFNPQSFSQ | 0.000478 average fractional NGS count over selection days 2 and 3 (reads of this peptide / all reads for the bait, averaged over …
chain 1 TLNPNAKEFNPMSFSQ | 0.00123 average fractional NGS count over selection days 2 and 3 (reads of this peptide / all reads for the bait, averaged over …
chain 1 TLNPNAKEFNPESFSQ | 0.000493 average fractional NGS count over selection days 2 and 3 (reads of this peptide / all reads for the bait, averaged over …
chain 1 TLNPNAKEFNPNSFSQ | 0.00143 average fractional NGS count over selection days 2 and 3 (reads of this peptide / all reads for the bait, averaged over …
chain 1 TLNPNAKEFNPLSFSQ | 0.000524 average fractional NGS count over selection days 2 and 3 (reads of this peptide / all reads for the bait, averaged over …
chain 1 TLNPNAKEFNYRSFSQ | 0.000724 average fractional NGS count over selection days 2 and 3 (reads of this peptide / all reads for the bait, averaged over …
chain 1 TLNPNAKEFNMRSFSQ | 0.000174 average fractional NGS count over selection days 2 and 3 (reads of this peptide / all reads for the bait, averaged over …
chain 1 TLNPNAKEFNNRSFSQ | 0.000672 average fractional NGS count over selection days 2 and 3 (reads of this peptide / all reads for the bait, averaged over …
chain 1 TLNPNAKEFNHRSFSQ | 0.00248 average fractional NGS count over selection days 2 and 3 (reads of this peptide / all reads for the bait, averaged over …
chain 1 TLNPNAKEFNQRSFSQ | 0.000241 average fractional NGS count over selection days 2 and 3 (reads of this peptide / all reads for the bait, averaged over …

Variant | screen value
chain 1 TLNPNAKEFNFRSFSQ | 0.00198 average fractional NGS count over selection days 2 and 3 (reads of this peptide / all reads for the bait, averaged over …
chain 1 TLNPNAKEFNGRSFSQ | 0.000676 average fractional NGS count over selection days 2 and 3 (reads of this peptide / all reads for the bait, averaged over …
chain 1 TLNPNAKEFNWRSFSQ | 0.000361 average fractional NGS count over selection days 2 and 3 (reads of this peptide / all reads for the bait, averaged over …
chain 1 TLNPNAKEFNLRSFSQ | 0.000381 average fractional NGS count over selection days 2 and 3 (reads of this peptide / all reads for the bait, averaged over …
chain 1 TLNPNAKEFNDRSFSQ | 8.69e-05 average fractional NGS count over selection days 2 and 3 (reads of this peptide / all reads for the bait, averaged over …
chain 1 TLNPNAKEFNSRSFSQ | 0.000475 average fractional NGS count over selection days 2 and 3 (reads of this peptide / all reads for the bait, averaged over …
chain 1 TLNINAKEFNPRSFSQ | 0.00226 average fractional NGS count over selection days 2 and 3 (reads of this peptide / all reads for the bait, averaged over …
chain 1 TLNTNAKEFNPRSFSQ | 0.000273 average fractional NGS count over selection days 2 and 3 (reads of this peptide / all reads for the bait, averaged over …
chain 1 TLNVNAKEFNPRSFSQ | 0.00399 average fractional NGS count over selection days 2 and 3 (reads of this peptide / all reads for the bait, averaged over …
chain 1 TLNLNAKEFNPRSFSQ | 0.000532 average fractional NGS count over selection days 2 and 3 (reads of this peptide / all reads for the bait, averaged over …
chain 1 TLNPNAKEWNPRSFSQ | 0.00363 average fractional NGS count over selection days 2 and 3 (reads of this peptide / all reads for the bait, averaged over …
chain 1 TLNPNSKEFNPRSFSQ | 0.000246 average fractional NGS count over selection days 2 and 3 (reads of this peptide / all reads for the bait, averaged over …
chain 1 TLNPNVKEFNPRSFSQ | 0.00065 average fractional NGS count over selection days 2 and 3 (reads of this peptide / all reads for the bait, averaged over …
chain 1 TLNPNTKEFNPRSFSQ | 0.000787 average fractional NGS count over selection days 2 and 3 (reads of this peptide / all reads for the bait, averaged over …
chain 1 TMNPNAKEFNPRSFSQ | 0.000384 average fractional NGS count over selection days 2 and 3 (reads of this peptide / all reads for the bait, averaged over …
chain 1 TYNPNAKEFNPRSFSQ | 0.000336 average fractional NGS count over selection days 2 and 3 (reads of this peptide / all reads for the bait, averaged over …
chain 1 TWNPNAKEFNPRSFSQ | 0.000443 average fractional NGS count over selection days 2 and 3 (reads of this peptide / all reads for the bait, averaged over …
chain 1 TFNPNAKEFNPRSFSQ | 0.000314 average fractional NGS count over selection days 2 and 3 (reads of this peptide / all reads for the bait, averaged over …
chain 1 TLNPNAKEFAPRSFSQ | 0.000525 average fractional NGS count over selection days 2 and 3 (reads of this peptide / all reads for the bait, averaged over …
chain 1 TLNPNAKEFPPRSFSQ | 0.000829 average fractional NGS count over selection days 2 and 3 (reads of this peptide / all reads for the bait, averaged over …
chain 1 TLNPNAKEFSPRSFSQ | 0.000422 average fractional NGS count over selection days 2 and 3 (reads of this peptide / all reads for the bait, averaged over …
chain 1 TLNPNAKEFHPRSFSQ | 0.000309 average fractional NGS count over selection days 2 and 3 (reads of this peptide / all reads for the bait, averaged over …
chain 1 TLNPNAKEFLPRSFSQ | 0.00266 average fractional NGS count over selection days 2 and 3 (reads of this peptide / all reads for the bait, averaged over …
chain 1 TLNPNAKEFDPRSFSQ | 0.0012 average fractional NGS count over selection days 2 and 3 (reads of this peptide / all reads for the bait, averaged over …
chain 1 TLNPNAKEFRPRSFSQ | 0.000511 average fractional NGS count over selection days 2 and 3 (reads of this peptide / all reads for the bait, averaged over …
